# According to patent publication US20160083465A1 (AVEO PHARMACEUTICALS, published 2016):
# Positions count from the first letter of the chain named.
# T1: mouse IgG1 Fc-mature human GDF15 fusion protein (mFc-rhGDF15) (mouse; human)
# T1 construct: Made in CHOK1SV cells, purified by Protein A and size exclusion; also called mouse Fc fused to human GDF15
# T1 chain: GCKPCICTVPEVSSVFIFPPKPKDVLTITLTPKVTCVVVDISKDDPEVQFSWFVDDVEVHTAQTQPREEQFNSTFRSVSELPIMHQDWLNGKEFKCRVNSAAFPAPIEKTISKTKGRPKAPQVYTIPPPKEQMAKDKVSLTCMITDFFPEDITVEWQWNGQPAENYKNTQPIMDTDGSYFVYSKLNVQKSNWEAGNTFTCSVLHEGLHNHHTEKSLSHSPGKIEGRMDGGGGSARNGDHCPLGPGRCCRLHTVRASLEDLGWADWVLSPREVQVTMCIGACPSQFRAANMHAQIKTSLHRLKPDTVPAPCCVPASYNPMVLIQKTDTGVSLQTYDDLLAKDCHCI
# B1: 08G01 (antibody, mouse IgG2b, kappa)
# heavy: EVLLQQSGPEVVKPGASVKIPCKASGYTFTDYNMDWVKQSHGKSLEWIGEINPNNGGTFYNQKFKGKATLTVDKSSSTAYMELRSLTSEDTAVYYCAREAITTVGAMDYWGQGTSVTVSSAKTTPPSVYPLAPGCGDTTGSSVTLGCLVKGYFPESVTVTWNSGSLSSSVHTFPALLQSGLYTMSSSVTVPSSTWPSQTVTCSVAHPASSTTVDKKLEPSGPISTINPCPPCKECHKCPAPNLEGGPSVFIFPPNIKDVLMISLTPKVTCVVVDVSEDDPDVQISWFVNNVEVHTAQTQTHREDYNSTIRVVSTLPIQHQDWMSGKEFKCKVNNKDLPSPIERTISKIKGLVRAPQVYILPPPAEQLSRKDVSLTCLVVGFNPGDISVEWTSNGHTEENYKDTAPVLDSDGSYFIYSKLNMKTSKWEKTDSFSCNVRHEGLKNYYLKKTISRSPGK
# light: DIQMTQSPASLSASVGETVTITCRASGNIHNYLAWYQQKQGKSPQLLVYNAKTLADGVPSRFSGSGSGTQYSLKINSLQPEDFGSYYCQHFWSSPYTFGGGTKLEIKRADAAPTVSIFPPSSEQLTSGGASVVCFLNNFYPKDINVKWKIDGSERQNGVLNSWTDQDSKDSTYSMSSTLTLTKDEYERHNSYTCEATHKTSTSPIVKSFNRNEC
# notes: Murine monoclonal from hybridoma, IgG2b kappa; also called antibody 08G01
# B2: Hu01G06-1 (antibody, human IgG1, kappa)
# heavy: not shown
# light: DIQMTQSPASLSASVGETVTITCRTSENLHNYLAWYQQKQGKSPQLLVYDAKTLADGVPSRFSGSGSGTQYSLKINSLQPEDFGSYYCQHFWSSPYTFGGGTKLEIKRTVAAPSVFIFPPSDEQLKSGTASVVCLLNNFYPREAKVQWKVDNALQSGNSQESVTEQDSKDSTYSLSSTLTLSKADYEKHKVYACEVTHQGLSSPVTKSFNRGEC
# notes: Mouse variable regions, human IgG1 and kappa constant regions; also called Chimeric 01G06; chimeric 01G06 (Hu01G06-1)
# B3: Hu01G06-46 (antibody, human IgG1, kappa)
# heavy: not shown
# light: DIQMTQSPSSLSASVGDRVTITCRTSENLHNYLAWYQQKPGKSPKLLVYDAKTLADGVPSRFSGSGSGTDYTLTISSLQPEDFATYYCQHFWSSPYTFGQGTKLEIKRTVAAPSVFIFPPSDEQLKSGTASVVCLLNNFYPREAKVQWKVDNALQSGNSQESVTEQDSKDSTYSLSSTLTLSKADYEKHKVYACEVTHQGLSSPVTKSFNRGEC
# notes: Humanized, human IgG1 kappa
# B4: Hu01G06-52 (antibody, human IgG1, kappa)
# heavy: not shown
# light: B3 light
# notes: Humanized, human IgG1 kappa
# B5: Hu06C11-27 (antibody, human IgG1, kappa)
# heavy: not shown
# light: DIQMTQSPSSLSASVGDRVTITCKASQNVGTNVAWFQQKPGKAPKSLIYSASYRYSGVPSRFSGSGSGTDFTLTISSLQPEDFATYYCQQYNNYPLTFGQGTKLEIKRTVAAPSVFIFPPSDEQLKSGTASVVCLLNNFYPREAKVQWKVDNALQSGNSQESVTEQDSKDSTYSLSSTLTLSKADYEKHKVYACEVTHQGLSSPVTKSFNRGEC
# notes: Humanized, human IgG1 kappa
# B6: Hu14F11-39 (antibody, human IgG1, kappa)
# heavy: not shown
# light: B5 light with A43S, S46A, A51P, Y87F, N93S, L96H
# notes: Humanized, human IgG1 kappa
# B7: Hu06C11-30 (antibody, human IgG1, kappa)
# heavy: not shown
# light: B5 light
# notes: Humanized, human IgG1 kappa
# B8: Hu14F11-47 (antibody, human IgG1, kappa)
# heavy: not shown
# light: B5 light with A43S, S46A, A51P, Y87F, N93S, L96H
# notes: Humanized, human IgG1 kappa
# B9: Hu06C11-1 (antibody, human IgG1, kappa)
# heavy: not shown
# light: DIVMTQSQKFMSTSVGDRVSVTCKASQNVGTNVAWFQQKPGQSPKALIYSASYRYSGVPDRFTGSGSGTDFILTISNVQSEDLAEYFCQQYNNYPLTFGAGTKLELKRTVAAPSVFIFPPSDEQLKSGTASVVCLLNNFYPREAKVQWKVDNALQSGNSQESVTEQDSKDSTYSLSSTLTLSKADYEKHKVYACEVTHQGLSSPVTKSFNRGEC
# notes: Mouse variable regions, human IgG1 and kappa constant regions; also called Chimeric 06C11
# B10: Hu01G06-105 (antibody, human IgG1, kappa)
# heavy: not shown
# light: B3 light with V48I
# notes: Humanized, human IgG1 kappa; tested in supernatant
# B11: Hu01G06-102 (antibody, human IgG1, kappa)
# heavy: not shown
# light: B3 light
# notes: as for B10
# B12: Hu01G06-104 (antibody, human IgG1, kappa)
# heavy: not shown
# light: B3 light
# notes: as for B10
# B13: Hu01G06-109 (antibody, human IgG1, kappa)
# heavy: not shown
# light: B3 light with V48I
# notes: as for B10
# B14: Hu01G06-106 (antibody, human IgG1, kappa)
# heavy: not shown
# light: B3 light with V48I
# notes: as for B10
# B15: Hu01G06-113 (antibody, human IgG1, kappa)
# heavy: not shown
# light: B3 light with S43A, V48I
# notes: as for B10
# B16: Hu01G06-110 (antibody, human IgG1, kappa)
# heavy: not shown
# light: B3 light with S43A, V48I
# notes: as for B10
# B17: Hu01G06-100 (antibody, human IgG1, kappa)
# heavy: not shown
# light: B3 light
# notes: as for B10
# B18: Hu01G06-112 (antibody, human IgG1, kappa)
# heavy: not shown
# light: B3 light with S43A, V48I
# notes: as for B10
# B19: Hu01G06-101 (antibody, human IgG1, kappa)
# heavy: not shown
# light: B3 light
# notes: as for B10
# B20: Hu01G06-111 (antibody, human IgG1, kappa)
# heavy: not shown
# light: B3 light with S43A, V48I
# notes: as for B10
# B21: Hu01G06-107 (antibody, human IgG1, kappa)
# heavy: not shown
# light: B3 light with V48I
# notes: as for B10
# B22: Hu01G06-108 (antibody, human IgG1, kappa)
# heavy: not shown
# light: B3 light with V48I
# notes: as for B10
# B23: Hu01G06-114 (antibody, human IgG1, kappa)
# heavy: not shown
# light: B3 light with S43A, V48I
# notes: as for B10
# B24: Hu01G06-103 (antibody, human IgG1, kappa)
# heavy: not shown
# light: B3 light
# notes: as for B10
# Target: T1, mouse IgG1 Fc-mature human GDF15 fusion …
# Assay: SPR Biacore T100, 37 C, antibody captured by anti-mouse IgG, antigen in solution
# Method: Rabbit anti-mouse IgGs (GE Healthcare) were immobilized on carboxymethylated dextran CM4 sensor chips (GE Healthcare) by amine coupling, according to a standard protocol. Analyses were performed at 37° C. using PBS containing 0.05% surfactant P20 as running buffer. The antibodies were captured in individual flow cells at a flow rate of 10 μL/minute. Injection time was varied for each antibody to yield an Rmax between 30 and 60 RU. 250 μg/mL mouse Fc (Jackson ImmunoResearch, West Grove, Pa.) was injected at 30 μL/minute for 120 seconds to block non-specific binding of capture antibodies to mouse Fc portion of the recombinant GDF15 protein when needed. […] The dissociation phase was monitored for up to 1500 seconds. The surface was then regenerated with two 60-second injections of 10 mM Glycine-HCl, pH 1.7, at a flow rate of 30 μL/minute.
# (§1) Kinetic parameters were determined using the kinetic function of the BIAevaluation software (GE Healthcare) with double reference subtraction.
Kd [nM],koff [s⁻¹],kon [M⁻¹ s⁻¹],Binder
0.19,0.0011,6e+06,B1

# Target: T1, mouse IgG1 Fc-mature human GDF15 fusion …
# Assay: SPR Biacore T100, 37 C, purified antibody captured by anti-human IgG Fc, antigen in solution
# Method: Goat anti-human IgGs (Fc fragment specific, Jackson ImmunoResearch, West Grove, Pa.) were immobilized on carboxymethylated dextran CM4 sensor chips by amine coupling, according to a standard protocol. Analyses were performed at 37° C. using PBS containing 0.05% surfactant P20 as running buffer. The antibodies were captured in individual flow cells at a flow rate of 10 μL/minute. Injection time was varied for each antibody to yield an Rmax between 30 and 60 RU. […] The dissociation phase was monitored for up to 1200 seconds. The surface was then regenerated with two 60-second injections of 10 mM Glycine-HCl, pH 2.25, at a flow rate of 30 μL/minute.
# as §1
Kd [nM],koff [s⁻¹],kon [M⁻¹ s⁻¹],Binder
0.16,0.00064,4.2e+06,B2
0.11,0.00038,3.6e+06,B3
0.099,0.00036,3.6e+06,B4
0.18,0.00082,4.7e+06,B5
0.066,0.00019,3e+06,B6
0.18,0.00087,4.8e+06,B7
0.065,0.00018,3.3e+06,B8
0.18,0.00084,5.3e+06,B9

# Target: T1, mouse IgG1 Fc-mature human GDF15 fusion …
# Assay: SPR Biacore T100, 37 C, antibody from supernatant captured by anti-human IgG Fc, antigen in solution
Kd [nM],koff [s⁻¹],kon [M⁻¹ s⁻¹],Binder
0.14,0.00071,4.9e+06,B2
0.13,0.00056,4.3e+06,B10
0.11,0.00046,4.4e+06,B11
0.12,0.00052,4.5e+06,B12
0.13,0.00056,4.6e+06,B13
0.16,0.0007,4.3e+06,B14
0.11,0.00048,4.5e+06,B15
0.14,0.00058,4.3e+06,B16
0.15,0.00062,4.1e+06,B17
0.12,0.00053,4.7e+06,B18
0.14,0.00063,4.4e+06,B19
0.1,0.00043,4.1e+06,B3
0.16,0.00066,4.3e+06,B20
0.12,0.00047,4.1e+06,B21
0.12,0.00046,4.2e+06,B22
0.089,0.00044,5e+06,B4
0.13,0.00054,4.5e+06,B23
0.11,0.00047,4.4e+06,B24
